Laboratory results reported in US20040023887A1 (published 2004).
Positions of bridges follow the written chain, without caps; N, C: chain ends. Chains are numbered I, II in the order given. No end group written: not given here.

Assays:
[1] = biological target: T1, human insulin receptor (HIR) (human, UniProt P06213-2 28-1370, limits assumed); assay: 125I-insulin competition on purified HIR
T1 construct: Also used for the WGA-purified recombinant human insulin receptor of the kinase assay

[2] = biological target: T2, Soluble IGF-1R (R&D Systems, Cat. # 391-GR/CF) (human, UniProt P08069 31-935); assay: phage ELISA; IGF-1R ratio divided by IR ratio
T2 construct: extracellular domain; the precursor is cleaved into alpha and beta subunits; also called sIGF-1R

[3] = biological target: T2, Soluble IGF-1R (R&D Systems, Cat. # …); assay: phage ELISA, receptor coated on plate; A405 over non-fat milk
[4] = biological target: T3, Insulin receptor prepared according to Bass et al., 1996 (soluble IR-immunoglobulin chimera) (human, UniProt P06213 28-956); assay: as above
T3 construct: extracellular domain; also called sIR-Fc; soluble IR (Bass construct); not shown: immunoglobulin constant domains replacing the transmembrane and intracellular domains

[5] = biological target: T4, human insulin receptor (HIR) (human, UniProt P06213-2 28-1370, limits assumed); assay: 125I-insulin competition on purified HIR
T4 construct: detergent-solubilised receptor

[6] = biological target: T5, human insulin receptor (HIR), purified from transfected cells after solubilization with Triton X-100 (human, UniProt P06213-2 28-1370, limits assumed); assay: competition with 125I-insulin on solubilized HIR, PEG precipitation
T5 construct: mature

Insulin Receptor (IR) = Insulin Receptor (IR) (UniProt P06213 28-956, limits assumed); assay: BIAcore competition: IR pre-incubated with about 40 µM peptide, residual binding to immobilised insulin
Method: Flowcell-1 was used for background binding to correct for any non-specific binding. […] The surface was regenerated with 25 mM NaOH.

[7] = biological target: T6, soluble HIR ectodomain (sIR) (human, UniProt P06213-2 28-944, limits assumed); assay: FP competition, label FITC-RP9, sIR
T6 construct: extracellular domain

[8] = biological target: T7, soluble human insulin receptor-immunoglobulin heavy chain chimera (sIR-Fc) (human, UniProt P06213 28-956, limits assumed, Eu3+ (LANCE) labelled in the TR-FRET assays); assay: FP competition, label FITC-RP9, sIR-Fc
T7 construct: extracellular domain; also called HIR-immunoglobulin heavy chain chimera; not shown: immunoglobulin heavy chain constant domains

[9] = biological target: T7, soluble human insulin …; assay: TR-FRET competition, label b-RP9, Eu-sIR-Fc
[10] = biological target: T7, soluble human insulin …; assay: TR-FRET competition, label b-S175, Eu-sIR-Fc
[11] = biological target: T1, human insulin receptor (HIR); assay: radio-receptor assay, label 125I-insulin, HIR

B1: S438 (peptide)
peptide 1: ESFYDWFERQLGGGGK
peptide 2: DQEWAWVQCEVYGRGCPS
modifications: not fully specified (bridges); cysteine pairing not given here; also: C-terminus of chain 2 linked to Lys16 of chain 1, bond at chain A 16 to a chain's C-terminus
Kd [1]: 30 nM

B2: B6L-3-G5-IR (peptide)
peptide: AETSAQVGWQRLWSVWPGDHWSTLDPFYHKLSELLRESGA
notes: library tags and phage coat protein not included
IGF-1R/IR ratio comparison [2]: 1.4 ratio
ratio over background (IGF-1R) [3]: 2 fold over background
ratio over background (IR) [4]: 1.4 fold over background

B3: S326 (peptide)
peptide: GIISQSCPESFYDWFAGQVSDPWWCW
notes: also called G33
Kd [5]: 590 nM

B4: S415 (peptide)
peptide: ESFYDWFERQLGKX
chain: ESFYDWFERQLGKX
modifications: not fully specified; C-terminus joined to chemical linker 23 of Table 3; C-C linked dimer
notes: Synthetic truncated RP9 homodimer
Kd [6]: 100 nM

B5: 2A9 (peptide)
peptide: LCQSWGVRIGWLTGLCP
% Binding (Insulin Receptor (IR)): 100%
Result (RUs) (Insulin Receptor (IR)): 128 RU

B6: H2 (peptide)
peptide: VTFTSAVFHENFYDWFVRQVS
% Binding (Insulin Receptor (IR)): 27%
Result (RUs) (Insulin Receptor (IR)): 34.6 RU

B7: S444 (peptide)
peptide 1: ESFYDWFERQLGGGGK
peptide 2: VQCEVYGRGCPS
modifications: not fully specified (bridges); cysteine pairing not given here; also: C-C branched: chain 2 C-terminus bonded to Lys16 side chain
Kd [1]: 190 nM

B8: RP9 (peptide)
peptide: GSLDESFYDWFERQLGKK
notes: also called S371
IC50 [7]: 0.03 nM
IC50 [8]: 10 nM
IC50 [9]: 42 nM
IC50 [10]: 6 nM
IC50 [11]: 44 nM

B9: S327 (peptide)
peptide: TFYSCLASLLTGTPQPNRGPWERCRKK
Kd [5]: 21 nM

B10: S395 (peptide)
peptide: GSLDESFYDWFERQL
Kd [5]: 81 nM

B11: S441 (peptide)
peptide 1: ESFYDWFERQLGGGGK
peptide 2: WAWVQCEVYGRGCPS
modifications: not fully specified (bridges); cysteine pairing not given here; also: C-terminus of chain 2 linked to Lys16 of chain 1, bond at chain A 16 to a chain's C-terminus
Kd [1]: 120 nM

B12: S443 (peptide)
peptide 1: ESFYDWFERQLGGGGK
peptide 2: WVQCEVYGRGCPS
modifications: not fully specified (bridges); cysteine pairing not given here; also: C-terminus of chain 2 linked to Lys16 of chain 1, bond at chain A 16 to a chain's C-terminus
Kd [1]: 170 nM

B13: S437 (peptide)
peptide 1: ESFYDWFERQLGGGGK
peptide 2: LDQEWAWVQCEVYGRGCPS
modifications: not fully specified (bridges); cysteine pairing not given here; also: C-terminus of chain 2 linked to Lys16 of chain 1, bond at chain A 16 to a chain's C-terminus
Kd [1]: 0.69 nM

B14: S484 (peptide)
peptide: LDQEWAVQCEVYGRGCPSESFYDWFERQLG
Kd [1]: 87 nM

B15: S442 (peptide)
peptide 1: ESFYDWFERQLGGGGK
peptide 2: AWVQCEVYGRGCPS
modifications: disulfide II:5-II:12 (inferred); also: bond at chain A 16 to a chain's C-terminus
Kd [1]: 160 nM

B16: D8 (synthetic peptide) (peptide)
peptide: KWLDQEWAWVQCEVYGRGCPSKK
% Binding (Insulin Receptor (IR)): 33%
Result (RUs) (Insulin Receptor (IR)): 41.6 RU

B17: S432 (peptide)
peptide 1: ESFYDWFERQLGGGGK
peptide 2: CEVYGRGCPS
modifications: not fully specified (bridges); cysteine pairing not given here; also: C-terminus of chain 2 linked to Lys16 of chain 1, bond at chain A 16 to a chain's C-terminus
Kd [1]: 180 nM

B18: S433 (peptide)
peptide 1: ESFYDWFERQLGGGGK
peptide 2: WLDQEWAWVQ
modifications: also: C-terminus of chain 2 linked to Lys16 of chain 1, bond at chain A 16 to a chain's C-terminus
Kd [1]: 110 nM

B19: 20C11 (peptide)
peptide: DRAFYNGLRDLVGAVYGAWD
% Binding (Insulin Receptor (IR)): 38%
Result (RUs) (Insulin Receptor (IR)): 49 RU

B20: S439 (peptide)
peptide 1: ESFYDWFERQLGGGGK
peptide 2: QEWAWVQCEVYGRGCPS
modifications: not fully specified (bridges); cysteine pairing not given here; also: C-terminus of chain 2 linked to Lys16 of chain 1, bond at chain A 16 to a chain's C-terminus
Kd [1]: 46 nM

B21: S440 (peptide)
peptide 1: ESFYDWFERQLGGGGK
peptide 2: EWAWVQCEVYGRGCPS
modifications: not fully specified (bridges); cysteine pairing not given here; also: C-terminus of chain 2 linked to Lys16 of chain 1, bond at chain A 16 to a chain's C-terminus
Kd [1]: 99 nM
